doi:10.1101/2023.09.25.559264
Where a chain is given by its changes, count along the chain named. Like-named read-outs stand apart in the source and are kept apart here.

Assays:
Test in all cases: MST
[1] = molecular target: T1, WtIHF (wild-type integration host factor) (E. coli, UniProt P0A6X7;P0A6Y1 1-99;1-94)
[2] = molecular target: T1, WtIHF (wild-type integration host …); remark: listed apart in the source
[3] = molecular target: T1, WtIHF (wild-type integration host …); remark: listed apart in the source

T1 sequence (P0A6X7 whole entry, chain 1 of 2): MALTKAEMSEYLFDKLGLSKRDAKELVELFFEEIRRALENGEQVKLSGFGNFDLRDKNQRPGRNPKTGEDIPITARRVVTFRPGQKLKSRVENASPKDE
T1 sequence (P0A6Y1 whole entry, chain 2 of 2): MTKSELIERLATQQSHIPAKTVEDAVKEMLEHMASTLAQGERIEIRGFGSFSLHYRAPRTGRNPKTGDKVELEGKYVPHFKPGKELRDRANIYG

B1: H'-HJ (structured_DNA)
DNA 1: CCAGACAGCAGTTATCAATTTGTTGGGACGGAGG
DNA 2: CCTTCAACCACCGCTCATGATTACTGCTGTCTGG
DNA 3: CCTCCGTCCCAACAAATGGCTGCTACCGGAAGGG
DNA 4: AAAAACCCTTCCGGTAGCAGCCTGAGCGGTGGTTGAAGG
- Kd [1]: 2.8 ± 0.5 nM
- Kd [2]: 12 ± 0.89 nM
- Kd [3]: 13.6 ± 2.21 nM

B2: H1-HJ (structured_DNA)
DNA 1: CCAGACAGCAGTAATCAACTACTTAGGACGGAGG
DNA 2: B1 DNA 2
DNA 3: B1 DNA 3 with C10T, C13G, A14T, A16G
DNA 4: B1 DNA 4
- Kd [1]: 11 ± 1.6 nM
- Kd [2]: 7.75 ± 1.1 nM
- Kd [3]: 7.09 ± 0.93 nM
